Test results: patent US20260210971A1 (Pfizer, published 2026)
Values belong to the binder of their own block, whether it stands above or below them.

What was measured:
[1] = biological target: T1, recombinant soluble human TL1A (human, UniProt O95150 71-251); experiment: cell-based or functional assay
T1 sequence: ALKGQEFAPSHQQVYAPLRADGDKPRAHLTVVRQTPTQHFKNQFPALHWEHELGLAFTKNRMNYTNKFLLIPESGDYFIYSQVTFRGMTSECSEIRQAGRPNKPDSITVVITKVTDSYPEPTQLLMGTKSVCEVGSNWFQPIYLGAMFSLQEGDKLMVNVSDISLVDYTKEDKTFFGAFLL

[2] = biological target: T1, recombinant soluble human TL1A; experiment: KinExA, equilibrium in solution
Procedure: This assay involves pre-incubating antibody: antigen mixtures in solution long enough to reach equilibrium before measuring the level of unbound antibody using a solid phase component. […] Beads were blocked for 1 hour with PBS plus 10 mg/ml bovine serum albumin (bovine serum albumin, Sigma) at room temperature before being diluted up to a total of 27 ml in PBS. […] For each titration series, a buffer sample and a sample of antibody alone were included. Each antibody: TL1A mixture was tumbled at room temperature for at least six hours to reach equilibrium and then each mixture was injected over the solid phase of TL1A-coated beads in the instrument flow cell. […] Beads were replenished between each sample. Binding signals of detected free antibody were converted to percentage of free, unbound antibody as measured by the antibody only sample and plotted versus each concentration of TL1A. For each antibody, the KD and ABC controlled curves were fit simultaneously using n-Curve Analysis software v3.1.4 to fit the curves to the ‘affinity, unknown ligand’ model and measure an equilibrium KD.
Solution-based kinetic exclusion assays (KinExA) were carried out as an orthogonal technique to measure equilibrium KD values.

[3] = biological target: T2, recombinant soluble cynomolgus monkey TL1A (cynomolgus monkey, UniProt O95150 72-251 (human entry)); experiment: SPR, IgG captured on anti-hIgG, TL1A injected;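 note: biacore surface plasmon resonance on a dextran sensor chip, double-referenced sensorgrams fitted to a one-to-one binding model, KD taken as dissociation over association rate constant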
T2 construct: also called cyno rsTL1A; cyno TL1A
T2 chain: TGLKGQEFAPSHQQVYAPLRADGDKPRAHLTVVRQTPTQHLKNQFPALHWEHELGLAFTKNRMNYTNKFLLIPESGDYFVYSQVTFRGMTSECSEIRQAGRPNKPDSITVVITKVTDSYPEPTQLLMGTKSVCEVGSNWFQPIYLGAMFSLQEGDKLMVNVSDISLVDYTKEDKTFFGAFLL
Source text: (§1) The antibodies were captured via directly immobilized anti-human IgG (GE Healthcare) onto a carboxymethylated dextran sensor chip surface (CM5) using a Biacore T100 or T200 instrument. Anti-human IgG was immobilized through amine coupling to densities of approximately 4,000-13,000 response units (RU). […] At the end of each cycle, the entire anti-hIgG surface was regenerated by a 30-second pulse of 3M MgCl₂ followed by two consecutive 15-second pulses of PBS-NET. […] All injections were performed at 25° C. at a collection rate of 10 Hz. All sensorgrams were double referenced by using both a control surface and buffer injections. Rate constants were determined by fitting the data to a 1:1 model in Biacore T100, T200 evaluation software v1.0, or BIAevaluation software v4.1.1 and the equation KD=Kd/kₐ.
(§2) At the highest cytokine concentrations, the dissociation phase was sometimes extended to 60 minutes to achieve at least a 5% decrease in binding signal.

[4] = biological target: T3, recombinant soluble murine TL1A (mouse, UniProt Q5UBV8 75-252); experiment: SPR, IgG captured on anti-hIgG, TL1A injected;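 note: biacore measurement on a carboxymethylated dextran chip, double-referenced against a control surface and buffer, rates fitted to a one-to-one binding model, KD from koff over kon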
T3 construct: also called murine rsTL1A; mouse TL1A
T3 chain: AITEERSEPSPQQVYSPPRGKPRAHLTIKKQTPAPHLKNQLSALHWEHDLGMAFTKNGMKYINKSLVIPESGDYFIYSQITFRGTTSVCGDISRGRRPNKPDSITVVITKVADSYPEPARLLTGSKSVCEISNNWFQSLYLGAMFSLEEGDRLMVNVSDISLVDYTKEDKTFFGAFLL
Source text: as §1, §2

[5] = biological target: T1, recombinant soluble human TL1A; experiment: SPR, IgG captured on anti-hIgG, TL1A injected; off rate too slow to measure;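 for koff: biacore T-200 with CM5 chip, anti-human IgG surface capturing under 30 RU of IgG, reference flow cell subtracted, running buffer PBS with 300 mM NaCl, EDTA and Tween20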;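 for kon: biacore T-200 with CM5 chip, anti-human IgG surface capturing under 30 RU of IgG, reference flow cell subtracted, running buffer PBS with 300 mM NaCl, EDTA and Tween20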
[6] = biological target: T1, recombinant soluble human TL1A; experiment: SPR, IgG captured on anti-hIgG, TL1A injected;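 note: biacore T-200 with CM5 chip, anti-human IgG surface capturing under 30 RU of IgG, reference flow cell subtracted, running buffer PBS with 300 mM NaCl, EDTA and Tween20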
Procedure: Biacore analysis was performed using T-200 biosensor, series S CM5 chips and approximately 4000 RU (response units) of an anti-human IgG (GE Healthcare), immobilized in 10 mM sodium acetate immobilization buffer at pH 5.0. Assay conditions were established to minimize the influence of mass transfer, avidity, and rebinding events, as described below. A blank immobilization was carried out on a separate flow cell for reference subtraction. The purified IgGs were diluted in running buffer (PBS, 300 mM sodium chloride, 3.2 mM ethylenediaminetetraacetic acid, 0.01% Tween20) and low levels (<30 RU) captured using a flow rate of 100 μl/min for 2 min, to reduce possible rebinding by the trimeric TL1A. […] Reference-subtracted sensorgrams for each concentration were analyzed using Biacore T-200 evaluation software (v1.0).

- Caspase Assay, average IC50 [1]: 0.0962 nM
- NFkB Assay, average IC50 [1]: 0.189 nM
- Kd [2]: 0.00252 nM
- Kd [3]: 0.144 nM
- koff [3]: 5.4e-05 s⁻¹
- kon [3]: 380000 M⁻¹ s⁻¹
- t1/2 [3]: 3.59 h
- Kd [4]: ~1.53 nM
- koff [4]: 0.00032 s⁻¹
- kon [4]: 210000 M⁻¹ s⁻¹
- t1/2 [4]: 0.602 h
- Kd [5]: < 0.1 nM
B1: 1D1 1.28 (antibody, human IgG1, kappa, V domains shown)
VH: QVQLVQSGAEVKKPGASVKVSCKASGYDFTYYGISWVRQAPGQGLEWMGWISTYNGNKHYARMLQGRVTMTTDTSTRTAYMELRSLRSDDTAVYYCARENYYGSGSYRGGMDVWGQGTTVTVSS
VL: EIVLTQSPATLSLSPGERATLSCRASQSVSSYLAWYQQKPGQAPRLLIYDASNRATGIPARFSGSGSGTDFTLTISSLEPEDFAVYYCQQRSNWPWTFGQGTKVEIKR
notes: Expressed as IgG1; also called 1D1 1.28-hIgG1-3m

- Kd [6]: 0.662 nM
- koff [6]: 0.000473 s⁻¹
- kon [6]: 717000 M⁻¹ s⁻¹
B2: 1D1 D18 (antibody, V domains shown)
VH: QVQLVQSGAEVKKPGASVKVSCKASGYSFTYYGISWVRQAPGQGLEWMGWISTYNGNTHYARMLQGRVTMTTDTSTRTAYMELRSLRSDDTAVYYCARENYYGSGSYRGGMDVWGQGTTVTVSS
VL: EIVLTQSPATLSLSPGERATLSCRASQSVSSYLAWYQQKPGQAPRLLIYDASNRATGIPARFSGSGSGTDFTLTISSLEPEDFAVYYCQQRSNWPWTFGQGTKVEIKR
notes: IgG with triple mutant Fc as for 1D1 D37

- Kd [2]: 3 nM
B3: 1D1 Fab (Fab, V domains shown)
VH: QVQLVQSGAEVKKPGASVKVSCKASGYSFTYYGISWVRQAPGQGLEWMGWISTYNGNTNYARMLQGRVTMTTDTSTRTAYMELRSLRSDDTAVYYCARENYYGSGSYRGGMDVWGQGTTVTVSS
VL: EIVLTQSPATLSLSPGERATLSCRASQSVSSYLAWYQQKPGQAPRLLIYDASNRATGIPARFSGSGSGTDFTLTISSLEPEDFAVYYCQQRSNWPWTFGQGTKVEIKR
notes: Made from 1D1 IgG by papain; also called Fab of 1D1

- Kd [6]: 0.453 nM
- koff [6]: 0.000387 s⁻¹
- kon [6]: 868000 M⁻¹ s⁻¹
B4: 1D1 D25 (antibody, V domains shown)
VH: QVQLVQSGAEVKKPGASVKVSCKASGYSFTYYGISWVRQAPGQGLEWMGWISTYNGATHYARMLQGRVTMTTDTSTRTAYMELRSLRSDDTAVYYCARENYYGSGSYRGGMDVWGQGTTVTVSS
VL: EIVLTQSPATLSLSPGERATLSCRASQSVSSYLAWYQQKPGQAPRLLIYDASNRATGIPARFSGSGSGTDFTLTISSLEPEDFAVYYCQQRSNWPWTFGQGTKVEIKR
notes: as for B2

- Caspase Assay, average IC50 [1]: 0.085 nM
- NFkB Assay, average IC50 [1]: 0.281 nM
- Kd [2]: 0.0194 nM
- Kd [3]: 0.092 nM
- koff [3]: 4.5e-05 s⁻¹
- kon [3]: 490000 M⁻¹ s⁻¹
- t1/2 [3]: 4.32 h
- Kd [4]: 2.86 nM
- koff [4]: 0.0007 s⁻¹
- kon [4]: 260000 M⁻¹ s⁻¹
- t1/2 [4]: 0.263 h
- Kd [5]: < 0.1 nM
B5: 1D1 1.29 (antibody, human IgG1, kappa, V domains shown)
VH: QVQLVQSGAEVKKPGASVKVSCKASGYDFTYYGISWVRQAPGQGLEWMGWISTYNGGTHYARMLQGRVTMTTDTSTRTAYMELRSLRSDDTAVYYCARENYYGSGSYRGGMDVWGQGTTVTVSS
VL: EIVLTQSPATLSLSPGERATLSCRASQSVSSYLAWYQQKPGQAPRLLIYDASNRATGIPARFSGSGSGTDFTLTISSLEPEDFAVYYCQQRSNWPWTFGQGTKVEIKR
notes: Expressed as IgG1

- Kd [6]: 0.518 nM
- koff [6]: 0.00042 s⁻¹
- kon [6]: 822000 M⁻¹ s⁻¹
B6: 1D1 D31 (antibody, V domains shown)
VH: QVQLVQSGAEVKKPGASVKVSCKASGYSFTYYGISWVRQAPGQGLEWMGWISTYNGNKHYARMLQGRVTMTTDTSTRTAYMELRSLRSDDTAVYYCARENYYGSGSYRGGMDVWGQGTTVTVSS
VL: EIVLTQSPATLSLSPGERATLSCRASQSVSSYLAWYQQKPGQAPRLLIYDASNRATGIPARFSGSGSGTDFTLTISSLEPEDFAVYYCQQRSNWPWTFGQGTKVEIKR
notes: as for B2

- Kd [6]: 0.84 nM
- koff [6]: 0.000866 s⁻¹
- kon [6]: 1.04e+06 M⁻¹ s⁻¹
B7: 1D1 DH9 (antibody, V domains shown)
VH: QVQLVQSGAEVKKPGASVKVSCKASGYSFTYYGISWVRQAPGQGLEWMGWISPYNGKTHYARMLQGRVTMTTDTSTRTAYMELRSLRSDDTAVYYCARENYYGSGSYRGGMDVWGQGTTVTVSS
VL: EIVLTQSPATLSLSPGERATLSCRASQSVSSYLAWYQQKPGQAPRLLIYDASNRATGIPARFSGSGSGTDFTLTISSLEPEDFAVYYCQQRSNWPWTFGQGTKVEIKR
notes: as for B2

- Kd [6]: 0.709 nM
- koff [6]: 0.00052 s⁻¹
- kon [6]: 745000 M⁻¹ s⁻¹
B8: 1D1 D21 (antibody, V domains shown)
VH: QVQLVQSGAEVKKPGASVKVSCKASGYSFTYYGISWVRQAPGQGLEWMGWISTYNGKTHYARMLQGRVTMTTDTSTRTAYMELRSLRSDDTAVYYCARENYYGSGSYRGGMDVWGQGTTVTVSS
VL: EIVLTQSPATLSLSPGERATLSCRASQSVSSYLAWYQQKPGQAPRLLIYDASNRATGIPARFSGSGSGTDFTLTISSLEPEDFAVYYCQQRSNWPWTFGQGTKVEIKR
notes: as for B2

- Kd [6]: 0.625 nM
- koff [6]: 0.000478 s⁻¹
- kon [6]: 776000 M⁻¹ s⁻¹
B9: 1D1 D5 (antibody, V domains shown)
VH: QVQLVQSGAEVKKPGASVKVSCKASGYSFTYYGISWVRQAPGQGLEWMGWISTYNGNTNYARMLQGRVTMTTDTSTRTAYMELRSLRSDDTAVYYCARENYYGSGAFRGGMDGWGQGTTVTVSS
VL: EIVLTQSPATLSLSPGERATLSCRASQSVSSYLAWYQQKPGQAPRLLIYDASNRATGIPARFSGSGSGTDFTLTISSLEPEDFAVYYCQQRSNWPWTFGQGTKVEIKR
notes: as for B2

- Kd [6]: 0.705 nM
- koff [6]: 0.000712 s⁻¹
- kon [6]: 1.01e+06 M⁻¹ s⁻¹
B10: 1D1 D29 (antibody, V domains shown)
VH: QVQLVQSGAEVKKPGASVKVSCKASGYSFTYYGISWVRQAPGQGLEWMGWISSYNGNTHYARMLQGRVTMTTDTSTRTAYMELRSLRSDDTAVYYCARENYYGSGSYRGGMDVWGQGTTVTVSS
VL: EIVLTQSPATLSLSPGERATLSCRASQSVSSYLAWYQQKPGQAPRLLIYDASNRATGIPARFSGSGSGTDFTLTISSLEPEDFAVYYCQQRSNWPWTFGQGTKVEIKR
notes: as for B2

- Kd [6]: 0.589 nM
- koff [6]: 0.0005 s⁻¹
- kon [6]: 853000 M⁻¹ s⁻¹
B11: 1D1 DH10 (antibody, V domains shown)
VH: QVQLVQSGAEVKKPGASVKVSCKASGYSFTYYGISWVRQAPGQGLEWMGWISTYNGNTNYARMLQGRVTMTTDTSTRTAYMELRSLRSDDTAVYYCARENYYGSGAYRGGMDVWGQGTTVTVSS
VL: EIVLTQSPATLSLSPGERATLSCRASQSVSSYLAWYQQKPGQAPRLLIYDASNRATGIPARFSGSGSGTDFTLTISSLEPEDFAVYYCQQRSNWPWTFGQGTKVEIKR
notes: as for B2

- Kd [6]: 0.924 nM
- koff [6]: 0.000896 s⁻¹
- kon [6]: 977000 M⁻¹ s⁻¹
B12: 1D1 DH8 (antibody, V domains shown)
VH: QVQLVQSGAEVKKPGASVKVSCKASGYSFTYYGISWVRQAPGQGLEWMGWISAYNGNTHYARMLQGRVTMTTDTSTRTAYMELRSLRSDDTAVYYCARENYYGSGSYRGGMDVWGQGTTVTVSS
VL: EIVLTQSPATLSLSPGERATLSCRASQSVSSYLAWYQQKPGQAPRLLIYDASNRATGIPARFSGSGSGTDFTLTISSLEPEDFAVYYCQQRSNWPWTFGQGTKVEIKR
notes: as for B2

- Kd [6]: 0.527 nM
- koff [6]: 0.000568 s⁻¹
- kon [6]: 1.09e+06 M⁻¹ s⁻¹
B13: 1D1 D28 (antibody, V domains shown)
VH: QVQLVQSGAEVKKPGASVKVSCKASGYSFTYYGISWVRQAPGQGLEWMGWISTYNGKTHYARMHQGRVTMTTDTSTRTAYMELRSLRSDDTAVYYCARENYYGSGSYRGGMDVWGQGTTVTVSS
VL: EIVLTQSPATLSLSPGERATLSCRASQSVSSYLAWYQQKPGQAPRLLIYDASNRATGIPARFSGSGSGTDFTLTISSLEPEDFAVYYCQQRSNWPWTFGQGTKVEIKR
notes: as for B2

- Caspase Assay, average IC50 [1]: 0.146 nM
- NFkB Assay, average IC50 [1]: 0.2 nM
- Kd [2]: 0.0106 nM
- Kd [3]: 0.107 nM
- koff [3]: 3.7e-05 s⁻¹
- kon [3]: 360000 M⁻¹ s⁻¹
- t1/2 [3]: 5.14 h
- Kd [4]: 1.91 nM
- koff [4]: 0.00029 s⁻¹
- kon [4]: 160000 M⁻¹ s⁻¹
- t1/2 [4]: 0.651 h
- Kd [5]: < 0.1 nM
B14: 1D1 1.33 (antibody, human IgG1, kappa, V domains shown)
VH: QVQLVQSGAEVKKPGASVKVSCKASGYDFTYYGISWVRQAPGQGLEWMGWISTYNGVTHYARMLQGRVTMTTDTSTRTAYMELRSLRSDDTAVYYCARENYYGSGAYRGGMDAWGQGTTVTVSS
VL: EIVLTQSPATLSLSPGERATLSCRASQSVSSYLAWYQQKPGQAPRLLIYDASNRATGIPARFSGSGSGTDFTLTISSLEPEDFAVYYCQQRSNWPWTFGQGTKVEIKR
notes: Expressed as IgG1; also called 1D1 1.33-hIgG1-3m
